Measured values as given in US20240342214A1 (MEDIZINISCHE HOCHSCHULE HANNOVER, published 2024).

T1: human ENTPD3 (Ectonucleoside triphosphate diphosphohydrolase 3) expressed on cells (human, UniProt O75355 1-529)
T1 sequence: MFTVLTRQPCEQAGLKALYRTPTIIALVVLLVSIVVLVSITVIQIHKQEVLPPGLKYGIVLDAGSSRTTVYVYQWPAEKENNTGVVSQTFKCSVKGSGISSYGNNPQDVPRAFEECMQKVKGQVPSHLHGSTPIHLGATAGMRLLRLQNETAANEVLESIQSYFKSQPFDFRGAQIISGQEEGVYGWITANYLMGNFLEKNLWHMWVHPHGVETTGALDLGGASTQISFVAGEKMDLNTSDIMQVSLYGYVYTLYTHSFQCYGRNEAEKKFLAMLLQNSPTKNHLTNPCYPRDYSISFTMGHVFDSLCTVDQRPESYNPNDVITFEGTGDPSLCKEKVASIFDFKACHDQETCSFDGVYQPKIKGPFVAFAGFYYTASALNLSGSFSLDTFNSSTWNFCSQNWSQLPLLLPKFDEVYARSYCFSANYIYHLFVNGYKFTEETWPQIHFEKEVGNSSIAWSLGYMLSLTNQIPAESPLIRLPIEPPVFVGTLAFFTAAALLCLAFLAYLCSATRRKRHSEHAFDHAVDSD

T2: murine ENTPD3 expressed on HEK293T cells (mouse, UniProt Q8BFW6 1-529)
T2 construct: Transiently transfected HEK293T cells (vector with eGFP behind a P2A site); also called mENTPD3; mouse ENTPD3
T2 sequence: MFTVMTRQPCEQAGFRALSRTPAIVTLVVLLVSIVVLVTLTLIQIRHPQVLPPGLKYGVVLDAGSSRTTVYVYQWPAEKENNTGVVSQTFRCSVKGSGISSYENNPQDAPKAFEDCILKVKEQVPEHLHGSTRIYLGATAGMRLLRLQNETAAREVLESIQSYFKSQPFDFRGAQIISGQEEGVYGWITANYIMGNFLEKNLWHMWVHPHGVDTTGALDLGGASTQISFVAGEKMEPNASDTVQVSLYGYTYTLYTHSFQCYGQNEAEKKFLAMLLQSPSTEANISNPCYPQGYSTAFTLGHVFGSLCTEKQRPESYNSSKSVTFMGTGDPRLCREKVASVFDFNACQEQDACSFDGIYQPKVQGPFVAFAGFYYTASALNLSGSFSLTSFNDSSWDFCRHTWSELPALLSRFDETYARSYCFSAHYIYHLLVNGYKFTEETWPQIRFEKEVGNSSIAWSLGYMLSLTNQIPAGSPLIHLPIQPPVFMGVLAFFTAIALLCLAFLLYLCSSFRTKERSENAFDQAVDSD

B1: CAR 2-CD8 (antigen binding domain from binder B2, CD8 hinge) (other)
chain: QVQLVQSGGGVVQPGRSLRLSCAASGFTFSSYAMSWVRQAPGKGLEWVSAISGSGGNTNYADSVKGRFTISRDNSKNTLYLQMNSLRAEDTAVYYCAKGGSTSSGYRFDYWGQGTLVTVSSGGGGSGGGGSGGGGSQLVLTQSPSASASLGASVKLTCTLSSGHSNYAIAWHQQQPEKGPRFLMNVNRDGSYTKGDGIPDRFSGSSSGAERYLTISSLQSDDEADYYCQTWGTGVQVFGGGTKLTVLTRFVPVFLPAKPTTTPAPRPPTPAPTIASQPLSLRPEACRPAAGGAVHTRGLDFACDIYIWAPLAGTCGVLLLSLVITLYCNHRPPALEWVRSKRSRLLHSDYMNMTPRRPGPTRKHYQPYAPPRDFAAYRSASCTRVKFSRSADAPAYQQGQNQLYNELNLGRREEYDVLDKRRGRDPEMGGKPRRKNPQEGLYNELQKDKMAEAYSEIGMKGERRRGKGHDGLYQGLSTATKDTYDALHMQALPPR
B2: hg012-C6 scFv (scFv)
scFv: EVQLVQSGGGLVQPGRSLRLSCTASGFTFGDYAMSWVRQAPGKGLEWVGFIRSKAYGGTTEYAASVKGRFTISRDDSKSIAYLQMNSLKTEDTAVYYCTRVPVVAGWYNWFDPWGQGTLVTVSSGSASAPKLEEGEFSEARVQSVLTQPPSASGTPGQRVTISCSGSSSNIGSNYVYWYQQLPGTAPKLLIYRNNQRPSGVPDRFSGSKSGNTASLTVSGLQAGDEADYYCSSYAGSNNVVFGGGTKLAVLGQPKAAPSVTLFPPSSAAAGSEQKLISEEDLSHHHHHH
notes: Soluble scFv made in E. coli, with Myc tag and His tag
B3: hg012-E4 scFv (scFv)
scFv: QVTLKESGGGLVQPGRSLRLSCAASGFTFDDYAMHWVRQAPGKGLEWVSGISWNSGSIGYADSVKGRFTISRDNAKNSLYLQMNSLRAEDTALYYCAKGANYDILTGYRKDNWFDPWGQGTLVTVSSGSASAPKLEEGEFSEARVDIVMTQSPATLSLSPGERATLSCRASQSVGSSLAWFQQKPGQAPRLLIYDASNRATGIPARFSGSGSGTDFTLTISSLEPEDFAVYYCQQRSNWPPYTFGQGTKLEIKRTVAAPSVAAAGSEQKLISEEDLSHHHHHH
notes: as for B2
B4: hg012-D3 scFv (scFv)
scFv: QVQLVQSGGGLVQPGRSLRLSCAASGFTFDDYAMHWVRQAPGKGLEWVSGISWNSGSIGYADSVKGRFTISRDNAKNSLYLQMNSLRAEDTALYYCAKGANYDILTGYEYWGQGTLVTVSSGSASAPKLEEGEFSEARVQAVVTQEPSLTVSPGETVTLTCGSSTGAVTSDHHPYWFQQKPGQVPRTLMHDTSTRYSWTPARFSGSIVGGKAALTLSGAQPEDEAEYHCFLYYSGTAIFGGGTKLTVLSQPKAAPSVTLFPPSSAAAGSEQKLISEEDLSHHHHHH
notes: as for B2
B5: hg012-B7 scFv (scFv)
scFv: QVQLQQSGAEVKKPGASVKVSCKASGYTFTSYAMHWVRQAPGQRLEWMGWINAGNGNTKYSQKLQGRVTITRDTSASTAYMELSSLRSEDTAVYYCARDSGYDLFDYWGQGTLVTVSSGSASAPKLEEGEFSEARVQAVVTQEPSFSVSPGGTVTLTCGLTSGSVSTTYYPSWYQQTPGQTPRTLIYKTNLRSPGVPDRFSGSILGNKAALTITGAQADDDSDYYCLLYMGSGVWVFGGGTRLTVLGQPKAAPSVTLFPPSSAAAGSEQKLISEEDLSHHHHHH
notes: as for B2
B6: hg012-C8 scFv (scFv)
scFv: QVTLKESGGGLVQPGRSLRLSCAASGFTFDDYAMHWVRQAPGKGLEWVSGISWNSGSIGYADSVKGRFTISRDNAKNSLYLQMNSLRAEDTALYYCAKGANYDILTGYRKDNWFDPWGQGTLVTVSSGSASAPKLEEGEFSEARVDIVMTQTPSTLSASVGDRVTITCRASQTISNWLAWYQQKPGKAPKLLIYKASTLESGVPSRFSGTGSGTEFTLTISSLQPDDFATYFCQQYHSYSRTFGQGTKVDVARTVAAPSVAAAGSEQKLISEEDLSHHHHHH
notes: as for B2
B7: hg012-C1 scFv (scFv)
scFv: QVQLVQSGAEVKKPGESLKISCKGSGYSFTSYWIGWVRQMPGKGLEWMGIIYPGDSGTRYSPSFQGQVTISADKSISTAYLQWSSLKASNTAMYYCARQQGAGAFDIWGQGTMVTVSSGSASAPKLEEGEFSEARVQSALTQPPSASGSPGQSVTISCTGTSRDVGGYNYVSWYQQHPGKAPKLILYEVTKRPSGVPDRFSGSKSGNTASLTISGLQAEDEADYYCSSYTSSSTVVFGGGTKLTVLGQPKAAPSVTLFPPSSAAAGSEQKLISEEDLSHHHHHH
notes: as for B2
B8: hg012-F10 scFv (scFv)
scFv: QMQLVQSGGGVVQPGRSLRLSCAASGFTFSSYGMHWVRQAPGKGLERVAVISYDGSNKYYADSVKGRFTISRDNSKNTLYLQMNSLRAEDTALYYCAKDHHPYGSSDSFDYWGQGTLVTVSSGSASAPKLEEGEFSEARVQAVVTQEPSLTVSPGGTVTLTCGSSTGAVTRGHYPYWLQQKPGQAPRTLIYDTVKKHSWTPARFSGSLVGGKAALTLSGAQPEDEADYYCLLSFIDTRYPARYVFGTGTKVTVLGQPKANPTVTLFPPSSAAAGSEQKLISEEDLSHHHHHH
notes: as for B2
B9: hg012-A8 scFv (scFv)
scFv: QVTLKESGGGLVQPGRSLRLSCAASGFTFDDYAMHWVRQAPGKGLEWVSGISWNSGSIGYADSVKGRFTISRDNAKNSLYLQMNSLRAEDTALYYCAKGANYDILTGYRKDNWFDPWGQGTLVTVSSGSASAPKLEEGEFSEARVLPVLTQPPSASGTPGQKVTISCSGSSSNIGSNYVFWYEQLPGAAPKLLMYSSNQRPSGVPDRFSGSKSGTSASLAISGLRSEDEADYYCAAWDDSLSGWVFGGGTKLTVLGQPKAAPSVTLFPPSSAAAGSEQKLISEEDLSHHHHHH
notes: as for B2

biological target: T1, human ENTPD3 (Ectonucleoside …); test: cell-based or functional assay

| Binder | Fold Change in TNF-α secretion (hIsMT/T cell co-culture 48 hrs) | Fold Change in TNF-α secretion (hIsMT/T cell co-culture 72 hrs) |
| --- | --- | --- |
| B1 | 521 fold, relative to the mock CD8 T cells condition | 568 fold, relative to the mock CD8 T cells condition |

biological target: T1, human ENTPD3 (Ectonucleoside …); test: cell-based or functional assay; remark: another data set of the same source

| Binder | Fold Change in IFN-γ secretion (hIsMT/T cell co-culture 48 hrs) | Fold Change in IFN-γ secretion (hIsMT/T cell co-culture 72 hrs) |
| --- | --- | --- |
| B1 | 269 fold, relative to the mock CD8 T cells condition | 294 fold, relative to the mock CD8 T cells condition |

biological target: T1, human ENTPD3 (Ectonucleoside …); test: flow cytometry; soluble scFv on transfected HEK293T cells; anti-His PE
Protocol: (§1) scFv binders initially obtained by phage display cell panning were screened first for recognition of ENTPD3 expressed on cells. Therefore, soluble scFv were produced in E. coli and used to stain HEK293T cells transiently transfected with a vector expressing the recombinant protein and eGFP downstream separated by a P2A site. Secondary staining was performed by PE staining the His-Tag of soluble scFv. Cells were measured in flow cytometry for GFP (antigen expression) and PE (scFv binding).

| Binder | binding result |
| --- | --- |
| B2 | binds |
| B3 | binds |
| B4 | binds |
| B5 | binds |
| B6 | binds |
| B7 | binds |

biological target: T2, murine ENTPD3 expressed on HEK293T cells; test: as above
Protocol: as §1

| Binder | binding result |
| --- | --- |
| B2 | no binding |
| B8 | no binding |
| B3 | no binding |
| B4 | no binding |
| B5 | no binding |
| B6 | no binding |
| B9 | no binding |
| B7 | no binding |
